B1: Alpha-crystallin A chain (Homo sapiens), P02489 (parent)
chain: MDVTIQHPWFKRTLGPFYPSRLFDQFFGEGLFEYDLLPFLSSTISPYYRQSLFRTVLDSGISEVRSDRDKFVIFLDVKHFSPEDLTVKVQDDFVEIHGKHNERQDDHGYISREFHRRYRLPSNVDQSALSCSLSADGMLTFCGPKIQTGLDATHAERAIPVSREEKPTSAPSS
B2: Alpha-crystallin A chain (Homo sapiens), P02489 (parent)
chain: B1 chain
partner: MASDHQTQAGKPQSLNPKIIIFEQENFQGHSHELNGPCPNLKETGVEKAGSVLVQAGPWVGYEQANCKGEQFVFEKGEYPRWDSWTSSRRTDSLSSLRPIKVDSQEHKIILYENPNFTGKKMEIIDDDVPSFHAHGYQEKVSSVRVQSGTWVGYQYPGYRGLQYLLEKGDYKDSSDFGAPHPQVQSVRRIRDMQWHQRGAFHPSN
B3: Gamma-crystallin C (Homo sapiens), P07315 (parent)
chain: MGKITFYEDRAFQGRSYETTTDCPNLQPYFSRCNSIRVESGCWMLYERPNYQGQQYLLRRGEYPDYQQWMGLSDSIRSCCLIPQTVSHRLRLYEREDHKGLMMELSEDCPSIQDRFHLSEIRSLHVLEGCWVLYELPNYRGRQYLLRPQEYRRCQDWGAMDAKAGSLRRVVDLY
partner: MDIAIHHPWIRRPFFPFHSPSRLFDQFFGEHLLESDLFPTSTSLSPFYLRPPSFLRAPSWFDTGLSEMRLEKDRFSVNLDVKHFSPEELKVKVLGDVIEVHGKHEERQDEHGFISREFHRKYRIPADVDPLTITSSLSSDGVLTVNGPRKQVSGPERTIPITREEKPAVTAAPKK
B4: Alpha-crystallin A chain (Homo sapiens), P02489 (parent)
chain: B1 chain
partner: B3 partner
B5: Gamma-crystallin C (Homo sapiens), P07315 (parent)
chain: B3 chain
partner: B2 partner
B6: Alpha-crystallin B chain (Homo sapiens), P02511 (parent)
chain: B3 partner
partner: B2 partner
B7: Alpha-crystallin B chain (Homo sapiens), P02511 (parent)
chain: B3 partner
partner: B1 chain

Variants of: B1
Details: with crgc_human CRYGC

effect of a mutation on the interaction | Variant
disrupting interaction | R116C

Variants of: B2
Details: with crbb2_human CRYBB2, P43320

effect of a mutation on the interaction | Variant
disrupting interaction | R116C

Variants of: B3
Details: with cryab_human CRYAB

effect of a mutation on the interaction | Variant
disrupting interaction | T5P

Variants of: B4
Details: with cryab_human CRYAB

effect of a mutation on the interaction | Variant
increasing interaction | R116C

Variants of: B5
Details: with crbb2_human CRYBB2, P43320

effect of a mutation on the interaction | Variant
disrupting interaction | T5P

Variants of: B6
Details: with crbb2_human CRYBB2, P43320

effect of a mutation on the interaction | Variant
increasing interaction | R120G

Variants of: B7
Details: with cryaa_human CRYAA

effect of a mutation on the interaction | Variant
decreasing interaction | R120G
